Data on one molecule can be found in article PMC4297639 (Nature protocols, 2014).

The experiment has as its target BACE2 (aspartic protease, recombinant, wild-type) (Homo sapiens (assumed; ), UniProt Q9Y5Z0). Kind of experiment: crystal structure.

Sequence of BACE2 (aspartic protease, recombinant, wild-type) (Q9Y5Z0 21-518): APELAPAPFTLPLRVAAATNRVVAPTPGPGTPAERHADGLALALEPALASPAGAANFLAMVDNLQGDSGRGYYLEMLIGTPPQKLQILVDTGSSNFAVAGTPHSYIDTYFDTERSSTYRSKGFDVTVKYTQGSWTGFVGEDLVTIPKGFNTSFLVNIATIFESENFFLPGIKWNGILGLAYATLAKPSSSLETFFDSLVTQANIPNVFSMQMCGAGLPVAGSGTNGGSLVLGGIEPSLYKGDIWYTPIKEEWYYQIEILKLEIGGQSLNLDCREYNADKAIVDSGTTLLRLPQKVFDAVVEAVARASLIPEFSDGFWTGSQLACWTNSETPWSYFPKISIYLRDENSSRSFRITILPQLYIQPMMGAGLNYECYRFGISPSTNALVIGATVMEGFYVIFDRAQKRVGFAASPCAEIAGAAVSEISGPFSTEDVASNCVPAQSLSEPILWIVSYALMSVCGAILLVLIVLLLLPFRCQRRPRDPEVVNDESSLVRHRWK

B1: Nanobody XA4815 (VHH)
VHH: QVQLQESGGGLVQAGGSLRLSCAASGFTFSRAAMRWVRRAPERGLEWVANINAGDGSASYADFVKGRFTASRDKAGNRLYLQMDNLRPNDTAVYYCIYNGHRGQGTQVTVSS
B1: the binding result was “binds”.
